According to US20160289280A1, “Fusion protein of recombinant ganoderma immunoregulatory protein and human serum albumin, preparation method thereof, and application thereof” (priority 2013, published 2016):
Values joined by “and” are separate entries in the source; they are usually repeats but may differ in a detail not shown here. Identical values can stand only once. Marks after values point to notes of the source that are not given here.

B1: rLZ-8-HSA: fusion protein of ganoderma immunoregulatory protein (LZ-8) and human serum albumin, linker GGGGSS, SEQ ID NO. 1 (protein)
chain: SDTALIFRLAWDVKKLSFDYTPNWGRGNPNNFIDTVTFPKVLTDKAYTYRVAVSGRNLGVKPSYAVESDGSGKVNFLEYNSGYGIADTNTIGVFVVDPDTNNDFIIAGWNGGGGSSMKWVTFISLLFLFSSAYSRGVFRRDAHKSEVAHRFKDLGEENFKALVLIAFAGYLGGCPFEDHVKLVNEVTEFAKTCVADESAENCDKSLHTLFGDKLCTVATLRETYGEMADCCAKGEPERNECFLGHKDDNPNLPRLVRPEVDVMCTAFHDNEETFLKKYLYEIARRHPYFYAPELLFFAKRYKAAFTECCGAADKAACLLPKLDELRDEGKASSAKGRLKCASLGKFGERAFKAWAVARLSGRFPKAEFAEVSKLVTDLTKVHTECCHGDLLECADDRADLAKYICENGDSISSKLKECCEKPLLEKSHCIAEVENDEMPADLPSLAADFVESKDVCKNYAEAKDVFLGMFLYEYARRHPDYSVVLLLRLAKTYETTLEKCCAAADPHECYAKVFDEFKPLVEEPGNLIKGNCELFEGLGEYKFGNALLVRYTKKVPGVSTPTLVEVSRNLGKVGSKCCKHPEAKRMPCAEDYLSVVLNGLCVLHEKTPVSDRVTKCCTESLVNRRPCFSALEVDETYVPKEFNAETFTFHADICTLSEKERGIKKGTALVELVKHKPKATKEGLKAVMDDFAAFVEKCCKADDKETCFAEEGKKLVAASGAALGL
modifications: rLZ-8-HSA sequence
B2: rLZ-8: recombinant ganoderma immunoregulatory protein which is not fused, comparator (protein, UniProt P14945 2-111, looked up)
Immunomodulatory protein Ling …: SDTALIFRLAWDVKKLSFDYTPNWGRGNPNNFIDTVTFPKVLTDKAYTYRVAVSGRNLGVKPSYAVESDGSQKVNFLEYNSGYGIADTNTIQVFVVDPDTNNDFIIAQWN

How the values were obtained:
mouse spleen cells = assay: promotion of mouse spleen cell proliferation, WST-1 method; format: cell-based; conditions: for OD450, promotion of cell proliferation: 24 h, x ± s, n = 9
Description: Testing effects of the fusion proteins on mouse spleen cell proliferation by a WST-1 method, which illustrates strength of biological activity, wherein according to the present invention, BALB/c female mice are used, whose weight is controlled at 20-22 g; executing the mice by stretching necks thereof, taking out spleens under a sterile condition, and putting into a plate with 5 ml DMEM comprising 10% calf serum; cracking the spleens with tweezers, filtering tissue suspension with gauze for removing tissue blocks, and preparing cell suspension of spleen cells; adding 100 μl the tissue suspension into 900 μl 2% glacial acetic acid for counting with a microscope; adjusting a cell concentration to 5×10^6/ml with DMEM comprising 2% calf serum; respectively preparing the fusion proteins and the rLZ-8 with same molar concentration gradient, wherein there are 3 gradient concentrations, each concentration occupies 9 wells with 100 μl per well; adding tissue suspension with a concentration of 5×10^6/ml with 100 μl per well; shaking for evenly mixing, and then putting into a 37° C., 5% CO2 incubation device to incubate for 24 h; after incubation, adding WST-1 with 20 μl per well; putting into the 37° C., 5% CO2 incubation device to incubate for 3 h, then testing OD450 (with a BIO-RAD); wherein results are listed in table 1.

melanoma = assay: in vitro inhibition effect on melanoma, WST-1 method; format: cell-based; conditions: 24 h, x ± s, n = 9
Description: In vitro experiment: testing the inhibition effect of the fusion protein rLZ-8-HSA on the melanoma through a WST-1 method, preparing tissue suspension of the melanoma; adding 100 μl the tissue suspension into 900 μl 2% glacial acetic acid and counting with a microscope; adjusting a tissue concentration to 2×10^5/ml with DMEM comprising 2% calf serum; respectively preparing the fusion protein rLZ-8-HSA and the rLZ-8 with same molar concentration gradient, wherein there are 3 gradient concentrations, each concentration occupies 9 wells with 100 μl per well; adding tissue suspension with a concentration of 2×10^5/ml with 100 μl per well; shaking for evenly mixing, and then putting into a 37° C., 5% CO2 incubation device to incubate for 24 h; after incubation, adding WST-1 with 20 μl per well; putting into the 37° C., 5% CO2 incubation device to incubate for 3 h, then testing OD450 (with a BIO-RAD); wherein results are listed in table 3.

[1] = test system: mouse transplanted tumor S180; assay: subcutaneous inhibition of mouse transplanted tumor S180; format: in vivo; conditions: tail vein, 10 days
Description: In vivo experiment: experimental material: mice weighing 18-22 g from Laboratory Animal Center of Jilin University; Ehrlich ascites tumor cell strains are provided by a lab of the inventor; cytoxan (CTX) is from Jiangsu Hengrui Medicine Co., Ltd, whose batch number is 06101921; 5180 ascites tumor and soild tumor experimental groups respectively comprises a normal control group, a negative control group, a positive control group, an rLZ-8 low-dosage group (0.25 mg·kg^−1), an rLZ-8 middle-dosage group (0.5 mg·kg^−1), an rLZ-8 high-dosage group (1 mg·kg^−1), an rLZ-8-HSA low-dosage group (0.25 mg·kg^−1), an rLZ-8-HSA middle-dosage group (0.5 mg·kg^−1), and an rLZ-8-HSA high-dosage group (1 mg·kg^−1), wherein dosages of the rLZ-8-HSA groups are judged from LZ-8 dosage, wherein each group comprises 10 mice.
tumor inhibition rate (%)=(average tumor weight of control groups−average tumor weight of experimental groups)/average tumor weight of control groups×100%.

platelets = assay: treatment of mouse thrombocytopenia caused by cyclophosphamide, platelet count; format: in vivo; conditions: for platelets after: after cyclophosphamide, before treatment; for platelets before: baseline before cyclophosphamide
Description: Experimental medicine: preparing a 19.25 μg·kg^−1 and a 9.625 μg·kg^−1 dosage groups of the recombinant ganoderma immunoregulatory protein (rLZ-8) with sterile injection water, and 0.2 ml per mouse; and preparing a 19.25 μg·kg^−1 and a 9.625 μg·kg^−1 dosage groups (judging from the LZ-8) of the fusion protein rLZ-8-HSA of the recombinant ganoderma immunoregulatory protein.
Positive control medicine: thrombopoietin (THPO) from Shenyang 3SBio Inc., with a dosage of 770 μg·kg^−1/d and 0.2 ml per mouse.
Chemotherapy medicine: cyclophosphamide (Cy) from Jiangsu Hengrui Medicine Co., Ltd, whose batch number is 12112121, 200 mg/bottle; preparing into 100 mg·kg^−1, 0.2 ml per mouse with sterile injection water.
Platelet dilution: urea: 1.3 g; sodium citrate: 0.5 g; formaldehyde: 0.1 ml; adding distilled water to 100 ml for mixing, then filtering for further utilization.
Experimental method: dividing experimental animals into 5 groups, wherein each group comprises 10 mice with 5 males and 5 females; except for a normal control group (injected with normal saline having an equal volume), abdominally injecting the cyclophosphamide to the mice with a dosage of 100 mg·kg^−1, 0.2 ml per mouse per day, and lasting for three days; when a platelet quantity decreased to below 300×10^9/L, subcutaneously injecting the rLZ-8, the fusion protein rLZ-8-HAS (19.25 μg·kg^−1, 9.625 μg·kg^−1, 0.2 ml·per mouse per day) and the positive medicine (THPO 770 μg·kg^−1, 0.2 ml·per mouse per day) according to the above groups with corresponding dosages, and injecting the normal saline having the equal volume to the normal control group and a CP group; respectively sampling mouse tail vein blood 3 d, 7 d and 14 d after treatment, counting platelets with high power lens, wherein results thereof are listed in table 7.

[2] = low-dosage 0.25 mg·kg^−1 (LZ-8)
[3] = middle-dosage 0.5 mg·kg^−1 (LZ-8)
[4] = 9.625 μg·kg^−1 (LZ-8) subcutaneously per day
[5] = 19.25 μg·kg^−1 (LZ-8) subcutaneously per day

Molecule	OD450, promotion of cell proliferation (mouse spleen cells; protein 5.0 × 10^−9 mol/L)	OD450, promotion of cell proliferation (mouse spleen cells; protein 10.0 × 10^−9 mol/L)	OD450, promotion of cell proliferation (mouse spleen cells; protein 15.0 × 10^−9 mol/L)	OD450, inhibition effect on melanoma (melanoma; protein 5.0 × 10^−9 mol/L)	OD450, inhibition effect on melanoma (melanoma; protein 10.0 × 10^−9 mol/L)	OD450, inhibition effect on melanoma (melanoma; protein 15.0 × 10^−9 mol/L)	Inhibition rate ([1]; high-dosage 1 mg·kg^−1 (LZ-8))	tumor weight ([1]; high-dosage 1 mg·kg^−1 (LZ-8)) [g]	Inhibition rate [1, 2]	tumor weight [1, 2] [g]	Inhibition rate [1, 3]	tumor weight [1, 3] [g]	platelets 3rd day (platelets; [4])	platelets 7th day (platelets; [4])	platelets 14th day (platelets; [4])	platelets after (platelets; 9.625 μg·kg^−1 group)	platelets before (platelets; 9.625 μg·kg^−1 group)	platelets 3rd day (platelets; [5])	platelets 7th day (platelets; [5])	platelets 14th day (platelets; [5])	other results
B1	0.936 ± 0.31	1.680 ± 0.38	2.373 ± 0.35	0.411 ± 0.31	0.212 ± 0.29	0.118 ± 0.11	29.3%	0.21 ± 0.08	27.7%	0.73 ± 0.03	56.4%	0.44 ± 0.05	624 ± 0.43* *10^9/L	697 ± 0.43* *10^9/L	929 ± 0.61** *10^9/L	261 ± 0.52 *10^9/L	843 ± 0.65 *10^9/L	760 ± 0.38* *10^9/L	978 ± 0.67* *10^9/L	1035 ± 0.78** *10^9/L	promotion of spleen cell proliferation compared with rLZ-8 (mouse spleen cells; same protein concentration): better than the rLZ-8; platelets after (platelets; 19.25 μg·kg^−1 group): 246 ± 0.36 *10^9/L; platelets before (platelets; 19.25 μg·kg^−1 group): 852 ± 0.82 *10^9/L; platelet recovery compared with the CP group (platelets; rLZ-8-HSA groups, p<0.05): returned to normal at the third day
B2	0.739 ± 0.23	1.197 ± 0.31	1.567 ± 0.27	0.427 ± 0.44	0.372 ± 0.21	0.302 ± 0.24	45.5% and 43.5%	0.57 ± 0.03	16.8% and 17.8%	0.83 ± 0.03	25.7% and 26.7%	0.74 ± 0.02	483 ± 0.45 *10^9/L	585 ± 0.78 *10^9/L	898 ± 0.61* *10^9/L	201 ± 0.41 *10^9/L	839 ± 0.40 *10^9/L	501 ± 0.48 *10^9/L	680 ± 0.28 *10^9/L	1021 ± 0.31** *10^9/L	platelets after (platelets; 19.25 μg·kg^−1 group): 226 ± 0.78 *10^9/L; platelets before (platelets; 19.25 μg·kg^−1 group): 946 ± 0.45 *10^9/L
